From US20240392039A1 (Regeneron, published 2024)

B1: H4H12170P (antibody, IgG4, V domains shown)
VH: QVQLVESGGGVVQPGRSLRLSCAASGFTFSGYGMHWVRQAPGKGLEWVALIWLDGSNDYYADSVKGRFTISRDNSKNTLYLQMNRLRAEDTAVYYCARDGPVAAIPDYWGQGTLVTVSS
VL: DIQMTQSPSTLSASVGDRVTITCRASQSISRWLAWYQLKPGKAPKLLIYKASSLESGVPSRFSGSGSGTDFTLTISSLQPDDFATYYCQQYNTYSYTFGQGTKLEIK
B2: H4H12176P2 (antibody, V domains shown)
VH: EVQLVESGGGLVQPGGSLRLSCAASGFHSNRYWMDWVRQAPGKGLEWVANIKQDGSEENYVDSVKGRFTISRDNAKNSLYLQMNSLRAEDTAVYYCARDRSTSWVPYWFFDLWGRGTLVTVSS
VL: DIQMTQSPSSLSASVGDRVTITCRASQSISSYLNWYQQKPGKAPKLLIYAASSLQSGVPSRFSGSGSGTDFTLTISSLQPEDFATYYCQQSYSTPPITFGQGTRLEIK
B3: H4H12177P2 (antibody, V domains shown)
VH: EVQLVESGGGVVQRGESLRLSCSASDFIFKDYAMYWVRQIPGKGLEWISLISGDGDTTWYGDSVKGRFTISRDNNENSLFLQMNDLRTEDTAMYYCARDMGWNFFQLQYWGQGTLVTVSS
VL: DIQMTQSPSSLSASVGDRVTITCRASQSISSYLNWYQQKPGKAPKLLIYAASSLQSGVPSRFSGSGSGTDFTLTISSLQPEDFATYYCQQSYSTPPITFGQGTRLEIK
B4: H4H12161P (antibody, V domains shown)
VH: EVQLVESGGDLVQPGGSLRLSCAASGFTFSDHYMDWVRQAPGKGLDWIGRIRNKANAYNTEYAASVRGRFTISRDDSQNLLYLQMNSLKTDDTAVYYCVRVWNYAYFAMDVWGQGTTVTVSS
VL: DIQMTQSPSSLSASVGDRVTITCRSSQNIGIFLNWYQQKPGEAPNLLISAASSLHSGVPSRFSGSGSGTDFTLTIGSLQPEDFATYYCQQTYNTIFTFGPGTKVDIK
B5: H4H12171P (antibody, V domains shown)
VH: EVQLVESGGGVVRPGGSLRLSCAASGFTFDEYGMTWVRQVPGKGLEWVSGITWNGGFTDYTDSVKGRFTSSRDNAKNSLYLQMNSLRAEDTALYYCARDGYSSSWGAYDIWGQGTMVTVSS
VL: DIQMTQSPSSLSASVGDRVTITCRASQSISTYLNWYQQKPGKAPKLLIYAASSLQSGVPLRFSGSGSGTDFTLTISSLQPEDFASYFCQQSYSTPYTFGQGTKLEIK
B6: H4H12175P (antibody, V domains shown)
VH: EVQLVESGGGVVQPGGSLRLSCAASGFTFNDYAMHWVRQAPGKGLEWVSLISGDGGNTYYADSVKGRLTISRDNSKNSLYLQMNSLRTEDTALYYCAKDKGWNFGYFDLWGRGTLVTVSS
VL: DIQMTQSPSSLSTSVGDRVTITCRASQNIDTYLNWYQQKPGKAPKLLIYDASSLQSGVPSRFSGSGSGTDFTLTITSLQPEDFATYYCQQNDNILHPLTFGGGTKVEIK
B7: H4H12176P2xH4H12177P2 bispecific antibody (bispecific antibody, V domains shown)
VH 1: B2 VH
VH 2: B3 VH
VL: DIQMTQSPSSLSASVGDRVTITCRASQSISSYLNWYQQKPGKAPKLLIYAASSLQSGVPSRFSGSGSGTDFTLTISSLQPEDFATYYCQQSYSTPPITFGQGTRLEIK

What follows are binders tested against T1, human complement C5 (human, UniProt P01031 19-1676) (assay: cell-based or functional assay).
T1 sequence (P01031 19-1676 limits assumed): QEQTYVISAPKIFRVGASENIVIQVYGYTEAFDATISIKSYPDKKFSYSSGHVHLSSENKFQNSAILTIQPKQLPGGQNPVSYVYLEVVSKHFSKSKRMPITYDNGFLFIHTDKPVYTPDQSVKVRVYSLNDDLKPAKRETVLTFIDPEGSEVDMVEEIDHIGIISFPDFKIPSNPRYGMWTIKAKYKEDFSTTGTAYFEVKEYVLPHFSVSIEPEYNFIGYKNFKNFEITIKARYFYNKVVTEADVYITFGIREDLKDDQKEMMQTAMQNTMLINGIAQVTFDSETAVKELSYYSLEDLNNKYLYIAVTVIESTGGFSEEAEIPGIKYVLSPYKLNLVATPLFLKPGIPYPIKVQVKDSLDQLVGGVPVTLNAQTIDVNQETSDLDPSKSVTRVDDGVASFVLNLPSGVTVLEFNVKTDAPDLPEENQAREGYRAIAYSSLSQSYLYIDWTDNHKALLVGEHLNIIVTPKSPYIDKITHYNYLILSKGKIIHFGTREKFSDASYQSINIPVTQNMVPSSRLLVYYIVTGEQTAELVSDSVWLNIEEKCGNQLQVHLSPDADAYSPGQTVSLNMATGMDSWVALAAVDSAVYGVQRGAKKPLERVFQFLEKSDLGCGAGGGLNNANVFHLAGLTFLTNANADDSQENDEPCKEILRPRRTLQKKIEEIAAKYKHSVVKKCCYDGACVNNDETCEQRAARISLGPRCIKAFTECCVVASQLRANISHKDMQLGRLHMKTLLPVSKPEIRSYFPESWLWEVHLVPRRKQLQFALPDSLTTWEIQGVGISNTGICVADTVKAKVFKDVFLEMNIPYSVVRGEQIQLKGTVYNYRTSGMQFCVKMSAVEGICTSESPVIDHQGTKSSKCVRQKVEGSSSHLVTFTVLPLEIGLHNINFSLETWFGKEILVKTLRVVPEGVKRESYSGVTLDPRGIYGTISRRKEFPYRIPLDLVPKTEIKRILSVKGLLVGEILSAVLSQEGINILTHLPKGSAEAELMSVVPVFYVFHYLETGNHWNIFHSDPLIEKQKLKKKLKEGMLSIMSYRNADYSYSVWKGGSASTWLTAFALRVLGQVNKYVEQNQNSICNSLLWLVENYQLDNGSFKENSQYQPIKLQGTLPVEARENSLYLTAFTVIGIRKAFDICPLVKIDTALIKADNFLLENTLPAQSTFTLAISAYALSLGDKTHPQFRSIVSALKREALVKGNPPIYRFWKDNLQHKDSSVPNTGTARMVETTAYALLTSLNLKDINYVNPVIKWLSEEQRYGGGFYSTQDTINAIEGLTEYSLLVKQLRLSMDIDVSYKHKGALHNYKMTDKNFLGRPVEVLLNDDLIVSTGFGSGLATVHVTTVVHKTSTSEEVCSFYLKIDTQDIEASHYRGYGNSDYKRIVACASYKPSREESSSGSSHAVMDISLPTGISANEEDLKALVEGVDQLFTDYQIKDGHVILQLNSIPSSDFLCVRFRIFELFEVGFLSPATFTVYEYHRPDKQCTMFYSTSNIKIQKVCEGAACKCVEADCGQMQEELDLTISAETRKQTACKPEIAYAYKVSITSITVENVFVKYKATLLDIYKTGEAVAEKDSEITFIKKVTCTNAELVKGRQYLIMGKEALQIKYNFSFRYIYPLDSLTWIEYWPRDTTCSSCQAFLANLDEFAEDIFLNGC

Binder | % Max Inh. of Lysis (alternative pathway hemolysis of rabbit RBC, 25% NHS, 30 min) [%]
B1 | 88.7
B2 | 62.8
B3 | 76.2
B4 | 59.2
B5 | 36.6
B6 | 77.8

Molecular target: T1, human complement C5
Assay: cell-based or functional assay
Remark: another data set of the same source

Binder | mAb/C5 ratio that blocked hemolysis to close to zero (25% C5-deficient NHS, 145 nM C5 add-back) [mAb/C5 molar ratio]
B7 | ~1.29

Molecular target: T1, human complement C5
Assay: cell-based or functional assay
Remark: another data set of the same source

Binder | % Max Inh. of Lysis (alternative pathway hemolysis, 25% NHS, 30 min) [%]
B2 | 27.4
B3 | 42.6
B7 | 98.1
